Results published in publication PMC2658612 (Cell host & microbe, 2008).

Molecular target: T1, SifA (1–330), as in the calorimetry and the crystal (S. typhimurium, UniProt Q56061 1-330)
T1 sequence: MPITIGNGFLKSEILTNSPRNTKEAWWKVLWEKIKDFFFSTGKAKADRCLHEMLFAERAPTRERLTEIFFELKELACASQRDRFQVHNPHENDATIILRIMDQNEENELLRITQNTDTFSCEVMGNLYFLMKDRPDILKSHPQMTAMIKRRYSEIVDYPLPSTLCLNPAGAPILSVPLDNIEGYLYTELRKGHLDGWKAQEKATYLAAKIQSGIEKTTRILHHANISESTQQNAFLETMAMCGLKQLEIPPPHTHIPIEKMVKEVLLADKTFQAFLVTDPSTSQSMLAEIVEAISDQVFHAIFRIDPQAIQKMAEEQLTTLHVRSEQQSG
Test: ITC

B1: PH domain (PHD) of SKIP (774–883), as in the calorimetry and the crystal (domain or fragment, UniProt Q8IWE5 774-883, looked up)
chain: KEGMLHYKAGTSYLGKEHWKTCFVVLSNGILYQYPDRTDVIPLLSVNMGGEQCGGCRRANTTDRPHAFQVILSDRPCLELSAESEAEMAEWMQHLCQAVSKGVIPQGVAP
B1 showed a Kd of 2580 nM.
